Positions count from the first letter of the chain named. Names and notes keep the numbering of the source. Values joined by “and” are separate entries in the source; they are usually repeats but may differ in a detail not shown here. Identical values can stand only once.
B1: QuasAr1: Archaerhodopsin 3 variant with mutations P60S, T80S, D95H, D106H, F161V; genetically encoded voltage indicator (protein)
chain: MDPIALQAGYDLLGDGRPETLWLGIGTLLMLIGTFYFLVRGWGVTDKDAREYYAVTILVSGIASAAYLSMFFGIGLTEVSVGGEMLDIYYARYAHWLFTTPLLLLHLALLAKVDRVTIGTLVGVDALMIVTGLIGALSHTAIARYSWWLFSTICMIVVLYVLATSLRSAAKERGPEVASTFNTLTALVLVLWTAYPILWIIGTEGAGVVGLGIETLLFMVLDVTAKVGFGFILLRSRAILGDTEAPEPSAGADVSAAD
B2: QuasAr2: Archaerhodopsin 3 variant with mutations P60S, T80S, D95Q, D106H, F161V; genetically encoded voltage indicator (protein)
chain: B1 chain with H95Q

Experiments:
HEK293T cells = test: Simultaneous whole-cell patch clamp electrophysiology and fluorescence in HEK cells (brightness, voltage sensitivity, speed); format: cell-based; conditions: for Brightness (λexc = 640 nm) 0.7 W/cm^2 / Brightness (λexc = 640 nm) 800 W/cm^2 / Sensitivity (ΔF/F per 100 mV): HEK293 cells; for voltage sensitivity (ΔF/F per 100 mV) / brightness relative to wild-type Arch: HEK cells; for brightness compared with corresponding double mutants: eGFP fusions in HEK cells, exc. 640 nm
Protocol: Simultaneous electrophysiology and fluorescence in HEK cells: HEK293T cells (ATCC CRL-11268) were cultured and transfected following standard protocols.^10 Briefly, HEK-293 cells were grown at 37° C., 5% CO2, in DMEM supplemented with 10% FBS and penicillin-streptomycin. Plasmids were transfected using Transit 293T (Mirus) following the manufacturer's instructions, and assayed 48 hours later. The day before recording, cells were re-plated onto glass-bottom dishes (MatTek) at a density of ˜10,000 cells/cm^2.
Cells were supplemented with retinal by diluting stock retinal solutions (40 mM, DMSO) in growth medium to a final concentration of 5 μM, and then returning the cells to the incubator for 0.5-1 hour. All imaging and electrophysiology were performed in Tyrode buffer (containing, in mM: 125 NaCl, 2.5 KCl, 3 CaCl2, 1 MgCl2, 10 HEPES, 30 glucose pH 7.3, and adjusted to 305-310 mOsm with sucrose). A gap junction blocker, 2-aminoethoxydiphenyl borate (50 μM, Sigma), was added to eliminate electrical coupling between cells.
Filamented glass micropipettes (WPI) were pulled to a tip resistance of 5-10 MΩ, and filled with internal solution containing 125 mM potassium gluconate, 8 mM NaCl, 0.6 mM MgCl2, 0.1 mM CaCl2, 1 mM EGTA, 10 mM HEPES, 4 mM Mg-ATP, 0.4 mM Na-GTP (pH 7.3); adjusted to 295 mOsm with sucrose. Pipettes were positioned with a Sutter MP285 manipulator. Whole-cell, voltage and current clamp recordings were acquired using an […] 700B amplifier (Molecular Devices), filtered at 2 kHz with the internal Bessel filter and digitized with a National Instruments PCIE-6323 acquisition board at 5-10 kHz. Data was only acquired from HEK cells having reversal potentials between −10 and −40 mV, access resistance<25 MΩ and membrane resistance>0.5 GΩ.
Simultaneous whole-cell patch clamp recordings and fluorescence recordings were acquired on a home-built, inverted epifluorescence microscope, described previously^10 and described below in “Apparatus”. For step response measurements, voltage clamp electronics were compensated 90-95%. We examined variants of QuasAr1 with mutations at position 95 (Asn, Cys, Gin, His and Tyr) and position 106 (Arg, Asp, Asn, Cys, Glu, His, Lys and Tyr). These experiments confirmed that histidine at position 106 provided undetectable photocurrent, and the best combination of improved voltage sensitivity, and fast kinetics.
We compared the fluorescence, voltage sensitivity, and speed of the QuasArs to wild-type Arch in HEK cells, using epifluorescence microscopy and whole-cell patch clamp electrophysiology. Under low intensity illumination (640 nm, 500 mW/cm^2), QuasAr1 was 15-fold brighter than wild-type Arch, and QuasAr2 was 3.3-fold brighter (FIG. 1B; Methods).

[1] = system: cultured rat hippocampal neurons; test: Single-trial detection of neuronal action potentials with eFRET GEVIs; format: cell-based; conditions: 3 W/cm^2 illumination, exposure times compatible with single action potentials
Source text: We further characterized the most sensitive eFRET voltage sensors via transient transfection in cultured rat hippocampal neurons. […] Injection of current pulses via a patch pipette (500-600 pA, 5-10 ms, 5 Hz) induced trains of action potentials, which induced downward fluorescence transients of 12% (YFP), 12% (mOrange2), 7% (mRuby2).
The signal-to-noise ratio (SNR) of fluorescence detection, defined as the ratio of the peak amplitude to standard deviation of fluorescence at the baseline, was 6.6 (YFP), 11.6 (mOrange2), and 10.5 (mRuby2). In all cases images were acquired at 1 kHz with 3 W/cm^2 illumination intensity. Previous measurements with QuasAr2 reported an SNR of 30-70 at the same bandwidth but with 800 W/cm^2 illumination.

[2] = low intensity illumination (640 nm, 500 mW/cm^2)

Molecule	τdown (+30 mV to −70 mV) % τ1 (HEK293T cells; 23° C.) [%]	τdown (+30 mV to −70 mV) τ1 (HEK293T cells; 23° C.) [ms]	τdown (+30 mV to −70 mV) τ2 (HEK293T cells; 23° C.) [ms]	τup (−70 mV to +30 mV) % τ1 (HEK293T cells; 23° C.) [%]	τup (−70 mV to +30 mV) τ1 (HEK293T cells; 23° C.) [ms]	τup (−70 mV to +30 mV) τ2 (HEK293T cells; 23° C.) [ms]	Brightness (λexc = 640 nm) 0.7 W/cm^2 (HEK293T cells; 23° C.)	Brightness (λexc = 640 nm) 800 W/cm^2 (HEK293T cells; 23° C.)	Sensitivity (ΔF/F per 100 mV) (HEK293T cells; 23° C.) [%]	step response time constant (single or first component) (HEK293T cells; 34° C., step −70 mV to +30 mV) [ms]	voltage sensitivity (ΔF/F per 100 mV) (HEK293T cells) [%]	brightness compared with corresponding double mutants (HEK293T cells)	brightness relative to wild-type Arch (HEK293T cells; high intensity (>100 W/cm^2))	brightness relative to wild-type Arch (HEK293T cells; [2]) [fold]	further results
B1	88	0.07	1.9	94	0.05	3.2	15.2	10.3	33	~0.05	32±3	significantly brighter than the corresponding double mutants	2.5 fold	15	response faster than fastest previously reported GEVIs (HEK293T cells): more than 10 fold; response time (HEK293T cells): 50 μs; voltage sensitivity compared with QuasAr2 (HEK293T cells): three-fold less than the sensitivity of QuasAr2; step response time constant (single or first component) (HEK293T cells; room temperature (23° C.), step −70 mV to +30 mV): < 0.05 ms and 0.053 ± 0.002 ms
B2	80	1.0	15.9	68	1.2	11.8	3.4	3.4	90	0.3 ± 0.05	90±2	significantly brighter than the corresponding double mutants	comparable	3.3	weight of first component of bi-exponential step response (HEK293T cells; 23° C.): 68%; weight of second component of bi-exponential step response (HEK293T cells; 23° C.): 32%; step response time constant (second component) (HEK293T cells; 23° C., step −70 mV to +30 mV): 11.8 ± 1.5 ms; step response time constant (second component) (HEK293T cells; 34° C.): 3.2 ± 0.4 ms; weight of first component of bi-exponential step response (HEK293T cells; 34° C.): 62%; weight of second component of bi-exponential step response (HEK293T cells; 34° C.): 38%; τdown (+30 mV to −70 mV) % τ1 (HEK293T cells; 34° C.): 73%; τdown (+30 mV to −70 mV) τ1 (HEK293T cells; 34° C.): 0.3 ms; τdown (+30 mV to −70 mV) τ2 (HEK293T cells; 34° C.): 4.0 ms; τup (−70 mV to +30 mV) % τ1 (HEK293T cells; 34° C.): 62%; τup (−70 mV to +30 mV) τ1 (HEK293T cells; 34° C.): 0.3 ms; τup (−70 mV to +30 mV) τ2 (HEK293T cells; 34° C.): 3.2 ms; direct fluorescence [1]: not detectable
